According to patent publication US20200096507A1:

Legend:
Experiment in all cases: cell-based or functional assay
DsRed = DsRed (UniProt Q9U6Y8)
CadC-wtTM-GCN4 (E. coli) = CadC-wtTM-GCN4 (E. coli) (UniProt P23890)
[1] = biological target: CadC-artTM-GCN4 (E. coli) (UniProt P23890)

Chain of DsRed (Q9U6Y8 whole entry): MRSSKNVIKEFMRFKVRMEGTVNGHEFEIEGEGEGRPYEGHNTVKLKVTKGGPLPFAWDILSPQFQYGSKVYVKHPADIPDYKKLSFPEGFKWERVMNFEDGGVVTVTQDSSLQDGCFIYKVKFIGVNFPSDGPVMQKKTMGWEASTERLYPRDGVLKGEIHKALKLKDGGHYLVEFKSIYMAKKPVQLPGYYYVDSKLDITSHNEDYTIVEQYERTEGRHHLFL

LexA-DBD-Lam4 (from UniProt P0A7C2 1-87)
deGFP signal strength with DsRed in the medium (cell-free system, pLexA-deGFP reporter 300 ng/reaction, LexA-Lam4 plasmid 800 ng/reaction) (DsRed): 4850 a.u. | deGFP signal strength without DsRed in the medium (baseline; cell-free system, pLexA-deGFP reporter 300 ng/reaction, LexA-Lam4 plasmid 800 ng/reaction) (DsRed): 41400 a.u. | ratio of deGFP signal strength without and with DsRed (cell-free system, pLexA-deGFP reporter 300 ng/reaction, LexA-Lam4 plasmid 800 ng/reaction) (DsRed): 8.5

CadC-wtTM-GCN4 (from UniProt P23890 1-187; P03069 253-274)
fold change in GFP expression compared to the construct without GCN4 (pCadBA-GFP reporter, E. coli, flow cytometry) (CadC-wtTM-GCN4 (E. coli)): 50 fold

CadC-artTM-GCN4 (from UniProt P23890 1-154; P03069 253-274)
fold change in GFP expression compared to the construct without GCN4 (pCadBA-GFP reporter, E. coli, flow cytometry) [1]: 300 fold
